Source: article PMC9927260

The sequences below were run on IBV H120 whole virus (target protein not identified) (Infectious bronchitis virus, live vaccine strain H120) (assay: direct ELAA).

Row | Sequence | Kd [nM]
1 | CACGTCTCTCTATTCGCTCCCTTCGCTAATTGTTCTCTCC [Apt_IBV02] | 58.2
2 | CAGACTTTGTTCAGCTCCTCGACTCTTCATTCCCTCCCTT [Apt_IBV03] | 109
3 | CCAGTATCATCCCTATCGTAGTCCTCAACAACCCCCTACA [Apt_IBV04] | 99.9
4 | CCCCAATCACAGTTAATCCTCGTTCCTATATCTCCCACAC [Apt_IBV01] | 99.2
5 | GACTTCCCTCTTTGTGTGTCATTCGGTGTTCTCGCTTTTG [Apt_IBV05] | 59.4
